Results published in the Human Domainome abundance scans (Beltran et al. 2025).

B1: Tripartite motif-containing protein 44, residues 174 to 218; numbered along this chain, Q96DX7 (parent)
chain: VAKRKCPDHGLDLSTYCQEDRQLICVLCPVIGAHQGHQLSTLDEA
B2: Far upstream element-binding protein 2, residues 142 to 214; numbered along this chain, Q92945 (parent)
chain: RTSMTEEYRVPDGMVGLIIGRGGEQINKIQQDSGCKVQISPDSGGLPERSVSLTGAPESVQKAKMMLDDIVSR

Variants of: B1
Assay: abundance fitness (aPCA) (normalised: wild type 0, dead -1); higher = more abundant; growth selection in yeast, the domain comes from the species named
Settings: Homo sapiens

Abundance fitness, by site and new letter:
G32: N -0.465, L -0.775, R -0.492, M -0.663, S -0.393, F -0.871, Y -0.743, Q -0.491, A -0.425, W -0.778, D -0.417, K -0.261, I -0.757, P -0.22, E -0.355, V -0.674, H -0.49, C -0.575
V30: I -0.032, C -0.073, G -0.144, M -0.008, P -0.369, K 0.096, H -0.046, Q 0.045, N -0.057, D 0.001, T 0.051, F -0.133, R 0.019, S 0.005, L -0.076, E 0.013, W -0.159, A -0.011
T41: M -0.065, Y -0.098, G 0.009, C -0.029, V -0.038, D 0.016, Q 0.011, P 0.003, E 0.02, N 0.009, H -0.102, L -0.087, S 0.032, A 0.024, I -0.11, F -0.254, W -0.131
D43: Y -0.112, S -0.026, L -0.107, F -0.157, H -0.058, A -0.036, K -0.073, E 0.023, N -0.026, Q -0.035, C -0.042, P 0, I -0.132, G -0.013, W -0.211, T -0.042, R -0.072, M -0.072, V -0.056
I31: W -0.13, Y -0.077, F -0.11, E 0.053, T 0.052, G -0.002, M 0.016, S 0.097, Q 0.028, K 0.067, L -0.02, A 0.022, N 0.059, V 0.032, H 0.029, P -0.306, D 0.062, R 0.003, C -0.103
Q38: E 0.007, K 0.03, M 0, V -0.071, F -0.079, N 0.029, P -0.03, W -0.255, D 0.036, C -0.051, L -0.061, G -0.009, H 0.024, R -0.006, I -0.045, Y -0.145, A -0.032, T 0.039
A45: L -0.093, R -0.006, T 0.021, M -0.029, E -0.096, D 0.002, P 0.004, I 0.168, C -0.058, V -0.022, S -0.243, Q 0.044, W -0.036, K -0.046
E44: T 0.014, R -0.032, G -0.002, V -0.065, I -0.132, D -0.053, C -0.055, K -0.056, N -0.014, F -0.123, Y -0.232, M -0.058, Q -0.031, W -0.14, A 0.009, S -0.01, H 0.102, L -0.082
S40: E -0.012, L -0.084, T -0.066, Q 0.012, V -0.083, G 0.015, N -0.118, M -0.103, R -0.033, P -0.044, K -0.041, I -0.079, C -0.027, W -0.177, A -0.008, D -0.032, H 0.022, F -0.108
Q35: Y -0.067, W -0.186, R -0.1, M -0.031, K 0.002, G -0.152, V -0.035, F -0.162, C -0.089, L -0.105, S -0.063, A -0.054, D -0.143, T -0.037, N -0.092, H 0.008, I -0.045, E -0.021
A33: S 0.019, I -0.031, C -0.048, L -0.079, Y -0.094, V -0.05, N -0.014, H -0.031, E -0.032, D -0.068, K -0.006, W -0.148
H37: P -0.588, E -0.565, N -0.584, F -0.931, D -0.589, W -0.95, R -0.677, Y -0.849, K -0.606, L -0.839, C -0.055, S -0.678, A -0.679, M -0.676, I -1.01, Q -0.599
G36: N -0.007, K -0.128, V -0.519, D -0.071, P -0.561, M -0.245, S -0.117, E -0.048, Y -0.363, C -0.172, Q -0.088, A -0.131, W -0.409, H -0.033, F -0.193, R -0.158, I -0.623, L -0.266
P29: C -0.2, Y -0.098, M -0.04, G -0.083, W -0.207, T -0.021, S 0.012, R -0.054, A -0.097, D -0.077, K -0.004, V -0.133, N -0.064, L -0.117, I -0.168, Q -0.071, E -0.031, H -0.016, F -0.198
L42: N 0.002, M -0.003, W -0.034, R 0.024, K 0.043, Q 0.048, H 0.056, V 0.023, S 0.033, D 0.028, E 0.035, A 0.045, F -0.031, T 0.068, Y 0.017, P 0.027, C 0.014, G 0.05
L39: A -0.02, M 0.028, K -0.06, I -0.024, G -0.041, D -0.025, F -0.026, V -0.019, H 0.011, Y -0.129, Q 0.033, N -0.043, W -0.035, S -0.021, E -0.021, C -0.06, P -0.032, R -0.011, T 0.019
H34: A -0.673, I -0.717, R -0.653, T -0.665, G -0.65, P -0.701, W -0.895, C -0.107, F -0.776, Q -0.605, D -0.575, E -0.647, L -0.925, Y -0.665, V -0.802, K -0.634, S -0.689

Variants of: B2
Assay: as above
Settings: Homo sapiens

Abundance fitness, by site and new letter:
E58: G -0.124, M -0.125
Q30: P -0.809
S72: A 0.016
T2: Y -0.016
M65: F -0.136, N 0.017
G13: L -0.174
S50: F -0.218, A -0.04, N -0.085
S33: D -0.916
A63: V -0.748, Y -0.811
D69: Q -0.097
E7: N -0.109, P -0.137, I -0.028
G23: T -0.27
Q25: Y -0.06
L67: R -0.778
G44: C -0.105
P47: L -0.094
G16: N -0.093
Q38: L -0.112
G22: C -0.204, T -0.192
Y8: N -0.536
M14: N -0.148
D32: I -0.12
E24: F -0.03
N27: P -0.476
D42: V -0.125
K64: H -0.442
R49: Y -0.379
V15: T -0.227
S52: M 0.047
E48: G -0.044
